Laboratory results taken from US20110065176A1.

Biological target: KDR(ECD1-3)-Fc (human) (UniProt P35968)
Assay: BIAcore; KDR(ECD1-3)-Fc immobilized on CM5 chip, IgG in flow

Chain of KDR(ECD1-3)-Fc (human) (P35968 other isoform, or with tags, fused parts or gaps limits assumed, form in doubt): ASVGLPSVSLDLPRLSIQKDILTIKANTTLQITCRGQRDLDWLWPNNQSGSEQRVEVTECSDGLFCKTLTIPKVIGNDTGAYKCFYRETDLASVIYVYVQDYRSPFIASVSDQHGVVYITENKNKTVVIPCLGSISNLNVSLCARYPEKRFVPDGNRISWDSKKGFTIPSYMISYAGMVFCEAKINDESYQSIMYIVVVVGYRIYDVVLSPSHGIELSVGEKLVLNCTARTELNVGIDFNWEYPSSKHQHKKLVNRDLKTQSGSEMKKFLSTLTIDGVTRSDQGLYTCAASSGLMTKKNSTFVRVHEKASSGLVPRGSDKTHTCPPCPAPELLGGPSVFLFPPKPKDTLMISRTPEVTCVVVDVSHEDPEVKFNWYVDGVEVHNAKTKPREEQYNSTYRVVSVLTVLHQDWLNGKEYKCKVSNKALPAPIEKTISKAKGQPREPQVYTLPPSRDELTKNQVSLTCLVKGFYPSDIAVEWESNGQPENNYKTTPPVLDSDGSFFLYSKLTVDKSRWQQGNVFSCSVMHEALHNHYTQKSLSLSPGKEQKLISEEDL

Kd: 0.385 nM | koff: 8.75e-05 s⁻¹ | kon: 227000 M⁻¹ s⁻¹
Substance: IMC-1121 IgG (reconstructed) (antibody)
